Nine molecules from patent US20250262297A1, “ALLERGY ANTIGEN AND EPITOPE THEREOF” (HOYU CO., LTD., priority 2017, published 2025) can be followed below.

The chains are these.
B1: aconitate hydratase 1 (protein)
chain: MATENPFNSILTTLEKPGGAGEFGKYFSLPALNDRRIDRLPYSVRILLESAIRNCDEFQVKSNDVEKIIDWENTSPKLVEIPFKPARVLLQDFTGVPAVVDLACMRDAMNKLGGDSNKINPLVPVDLVIDHSVQVDVARSENAVQANMELEFQRNKERFGFLKWGSNAFNNMLVVPPGSGIVHQVNLEYLGRVVFNTNGVLYPDSVVGTDSHTTMIDGLGVAGWGVGGIEAEAAMLGQPMSMVLPGVVGFKLLGKLRDGVTATDLVLTVTQMLRKHGVVGKFVEFYGEGMSELSLADRATIANMSPEYGATMGFFPVDHVTLQYLRLTGRSDETVSMIESYLRANKMFVDYSEPQVERVYSSYLELNLEDVEPCVSGPKRPHDRVPLREMKVDWHACLNNKVGFKGFAVPKESQNKVAEFTFQGTPAHLRHGDVVIAAITSCTNTSNPSVMLGAALVAKKACELGLQVKPWIKTSLAPGSGVVTKYLQRSGLQKYLNELGFNIVGYGCTTCIGNSGDINEAVASAITENDIVAAAVLSGNRNFEGRVHPLTRANYLASPPLVVAYALAGTVDIDFDTEPIGIGKDGTKIFFRDIWPSSEEIANVVQSSVLPAMFRDTYNAITQGNPMWNNLSVPTGTLYAWDPTSTYIHEPPYFRDMSMSPPGSHGVKDAYCLLNFGDSITTDHISPAGSIHKDSPAARYLIERGVDRRDFNSYGSRRGNDEVMARGTFANIRIVNKFLNGEVGPKTIHIPSGEKLSVFDAAEKYKSEGHDMIILAGAEYGSGSSRDWAAKGPMLLGVKAVIAKSFERIHRSNLVGMGIIPLCFKPGDDADSLGLTGHERYTIDLPSNVNEIRPGQDVTVVTDAGKSFVSTLRFDTEVELAYFNHGGILQYVIRNMVNAKH
modifications: Glycine max
B2: probable fructokinase-4 (protein)
chain: MALNNGVPATGTGLIVSFGEMLIDFVPTVSGVSLAEAPGFLKAPGGAPANVAIAVSRLGGKAAFVGKLGDDEFGHMLAGILKENGVRADGINFDQGARTALAFVTLRADGEREFMFYRNPSADMLLKPEELNLELIRSAKVFHYGSISLIVEPCRSAHLKAMEVAKESGCLLSYDPNLRLPLWPSAEEARKQILSIWEKADLIKVSDAELEFLTGSDKIDDESALSLWHPNLKLLLVTLGEHGSRYYTKSFKGSVDAFHVNTVDTTGAGDSFVGALLAKIVDDQSILEDEPRLREVLKFANACGAITTTQKGAIPALPKEEAALKLIKGGS
B3: 14-3-3-like protein (protein)
chain: MAAAPSPREENVYMAKLAEQAERYEEMVEFMEKVSAAADNEELTVEERNLLSVAYKNVIGARRASWRIISSIEQKEESRGNEDHVSVIRDYRSKIESELSNICDGILKLLDSRLIPSASSGDSKVFYLKMKGDYHRYLAEFKTGAERKEAAESTLSAYKAAQDIANAELPPTHPIRLGLALNFSVFYYEILNSPDRACNLAKQAFDEAIAELDTLGEESYKDSTLIMQLLRDNLTLWTSDMQDDGADEIKEAAPKPDDQ
B4: transketolase, chloroplastic (protein)
chain: MASSTSSISLSQALLRPTTTSLPSSSSSLRLTPTLRPTPPALSLRRRLTTSIRAAASVKTVEKATADAALVEKSVNTIRFLAIDAVEKANSGHPGLPMGCAPMGHVLYDETMKYNPKNPFWFNRDRFVLSAGHGCMLQYALLHLAGFDSVKEEDLREFRQWGSRTPGHPENFETPGIEVTTGPLGQGIANAVGLALAEKHLAARYNKPDNEIVDHYTYAILGDGCQMEGIANEACSLAGHWGLGKLIAFYDDNHISIDGNTEIAFTESVDSRFEGLGWHVIWVKNGNNGYDDIRAAIKEAKAVKDKPTLIKVTTTIGYGSPNKANSYSVHGSALGAKEVDATRQNLGWSHEPFHVPEDVKKHWSRHTPEGAALEAEWNAKFAEYEKKYKEEAAELKSIINGEFPAGWEKALPTYTPESPADATRNLSQTNLNALAKVLPGLLGGSADLASSNMTLLKMFGDFQKDTPAERNVRFGVREHGMGAICNGIALHSPGLIPYCATFFVFTDYMRGAIRLSALSEAGVIYVMTHDSIGLGEDGPTHQPIEHLASFRAMPNILMLRPADGNETAGAYKVAVLNRKRPSILALSRQKLPQLPGTSIEGVEKGGYTISDNSTGNKPDVILIGTGSELEIAAKAADDLRKEGKAVRVVSLVSWELFDEQSEAYKESVFPAAVSARVSIEAGSTFGWEKIVGAKGKAIGIDRFGASAPAGRIYKEFGITKEAVVAAAKELI
B5: superoxide dismutase [Fe], chloroplastic isoform X1 (protein)
chain: MASLGGLQNVSGINFLIKEKGCCMLQGPKVNAKFELKPPPYPLNGLEPVMSQQTLEFHWGKHHKTYVENLKKQVVGTELDGKSLEEIIVTSYNKGDILPAFNNAAQVWNHDFFWECMKPGGGGKPSGELLELIERDFGSFVKFLDEFKAAAATQFGSGWAWLAYRARKFDGENVANPPSPDEDNKLVVLKSPNAVNPLVWGGYYPLLTIDVWEHAYYLDFQNRRPDYISVFMDKLVSWDAVSSRLEQAKALITSA
modifications: Glycine max
notes: spot also identified as iron-superoxide dismutase
B6: uncharacterized protein LOC100813859 (protein)
chain: MASEESQNKPPSEQSTTELITSAKLVAEAAQSALKSDSDKVDKAKVADAAGDLLDAAGKYGKLDDKQGIGQYVDKAADYLHNYQGDNTTAPSQPAESKGEESGGGLGGLANLAGGFFKK
B7: 51 kDa seed maturation protein precursor (protein)
chain: MASKVVSVLVIAMMLFAMNCNCTSVGHMPSTKEEGHDFQESKAKTTQTANKAMETGKEGQEAAESWTEWAKEKLSEGLGFKHDQESKESTTNKVSDYATDTAQKSKDYATDTAQKSKDYAGDAAQKSKDYAGDAAQKTKDYASDTAQTSKDYAGDAAQKSKGYVGDAAQKTKEYVGDAAQKTKDYATDAAQKTKDYATQKTKDYASDATDAAKKTKDYAAQKTKDYASEASDVAQNTKDYAAQKTKDYASGGAQKTKDYASGGAQKTKDYASDAAQKTKDYASDGAQKSKEYAGDVALNAKDYAQKSKDYAGDAAQNVKDYASDAVQKRKEYSGDASHKSKEASDYASETAKKTKDYVGDAAQRSKGAAEYASDAAQRTKEYAGDATKRSKEASNDHANDMAQKTKDYASDTAQRTKEKLQDIASEAGQYSAEKAREMKDAAAEKASDIAKAAKQKSQEVKEKLGGQHRDAEL
modifications: Glycine max
notes: spot also identified as Lea protein precursor
B8: triosephosphate isomerase isoform X1 (protein)
chain: MGRKFFVGGNWKCNGTTEEVKKIVTTLNEAKVPGEDVVEVVVSPPFVFLPFVKSLLRPDFHVSAQNCWVRKGGAYTGEVSAEMLVNLGIPWVIIGHSERRQLLNESNEFVGDKVAYALQQGLKVIACIGETLEQREAGTTTAVVAEQTKAIAAKISNWDNVVLAYEPVWAIGTGKVATPAQAQEVHADLRKWVHDNVSAEVAASVRIIYGGSVNGGNCKELAAQPDVDGFLVGGASLKAEFVDIINAATVKKN
modifications: Glycine max
notes: spot also identified as triosephosphate isomerase, cytosolic
B9: alpha-1,4 glucan phosphorylase L isozyme, chloroplastic/amyloplastic (protein)
chain: MASSSTTMRFSAASTGAAAALPRRSSVAGFIGVAARSSAKSRLRFIGRNANLSLRMRRMSSFSVVKCVSGSEAKVQDTVAKQQEATTSLSSFTPDASSIASSIKYHAEFTPLFSPENFDLPQAFLATAQSVRDSLIINWNATYDYYEKLNVKQAYYLSMEFLQGRALLNAIGNLELTGPYAEALSKLGHKLENVAYQEPDAALGNGGLGRLASCFLDSLATLNYPAWGYGLRYKYGLFKQRITKDGQEEVAEDWLEMGNPWEIIRNDVSYPVKFYGKVVSGSDGKKHWIGGEDIKAVAHDVPIPGYKTKTTINLRLWSTKAASEEFDLSAFNAGRHTEASEALANAEKICYILYPGDEPIEGKILRLKQQYTLCSASLQDIIARFERRSGANVNWEEFPEKVAVQMNDTHPTLCIPELMRILIDVKGLNWKDAWNITQRTVAYTNHTVLPEALEKWSLDLMQKLLPRHIEIIEMIDEELVRTIIAEYGTENSDLLEKKLKEMRILENVELTAEFADILVKSKEAIDIPSEELQSSEQAEAEDEKDDDEVEAVAKKNGTDESSIEDEKEELPEPVPEPPKLVRMANLCVVGGHAVNGVAEIHSEIVKDDVFNAFYKLWPEKFQNKTNGVTPRRWIRFCNPDLSKIITEWIGTEDWVLNTGKLAELRKFVDNEDLQVQWREAKRSNKVKVAAFIREKTGYSVSPDAMFDIQVKRIHEYKRQLMNIFGIVYRYKKMKEMSAAEREANFVPRVCIFGGKAFATYVQAKRIVKFITDVGATVNHDPEIGDLLKVVFVPDYNVSVAEMLIPASELSQHISTAGMEASGTSNMKFAMNGCILIGTLDGANVEIREEVGADNFFLFGAKAHEIAGLRKERAEGKFVPDPRFEEVKEFVRSGIFGSYNYDELMGSLEGNEGFGRADYFLVGKDFPSYIECQEKVDEAYRDQTKWTRMSILNTAGSYKFSSDRTIHEYAREIWNIEPVQLP

This test relates to IgE antibodies from soybean-allergic patients. As to the kind of experiment: Immunoblotting of two-dimensional electrophoresis pattern of soybean proteins with patient serum. Format: binding, human. The following applies: spot in 2D electrophoresis gel of soybean proteins; patient serum compared with healthy subject serum. The source says: Transfer to membrane was done using the following transfer system and transfer buffer. • Transfer system: XCell SureLock Mini-Cell and XCell II Blot Module (produced by Life Technologies) • Transfer buffer: NuPAGE Transfer Buffer (X20) (produced by Life Technologies), used in a form diluted 20-fold with milliQ water.
To be specific, proteins in the two-dimensional electrophoresis gels were transferred to a membrane (PVDF membrane) according to the following procedure. • (1) The PVDF membrane was immersed in 100% methanol followed by milliQ water, and then moved into the transfer buffer to hydrophilize the PVDF membrane. • (2) After sponge, filter paper, the gels treated by second-dimensional SDS-PAGE, the hydrophilized PVDF membrane, filter paper, and sponge were put in place in this order, the transfer system was energized at a constant voltage of 30 V for one hour.
Immunoblotting of the membrane was carried out using, as a primary antibody, a serum sample from a patient with a soybean allergy or a serum sample from a healthy subject.
Immunoblotting of the membrane was carried out according to the following procedure. • (1) The transferred membrane was shaken in a 5% skim milk/PBST solution (a PBS buffer containing 0.3% Tween 20 nonionic surfactant) at room temperature for one hour. • (2) The membrane was left to stand in a solution of 3% primary antibody serum in 5% skim milk/PBST at room temperature for one hour. • (3) The membrane was washed with a PBST solution (5 min.×3 times). • (4) The membrane was left to stand in a 1:2500 dilution of the secondary antibody, anti-human IgE-HRP (horseradish peroxidase), with a 3% skim milk/PBST solution at room temperature for one hour. • (5) The membrane was washed with a PBST solution (5 min.×3 times). • (6) The membrane was left to stand in Pierce Western Blotting Substrate Plus (produced by Thermo Fisher Scientific) for 5 minutes.
The membrane obtained through the foregoing series of treatments was subjected to fluorescent image scanning on Typhoon 9400 (produced by GE).
The immunoblots obtained with the serum from the soybean-allergic patient were compared with those obtained with the control serum from the healthy subject.
Background: In western blotting, separated proteins are transferred to a membrane and probed.
In the case of B1, the “specific binding to IgE antibodies from soybean-allergic patients” value (“specific binding to IgE antibodies” below) is listed as “specific binding”. Turning to B2, the “specific binding to IgE antibodies” value is on record as “specific binding”. B3: the “specific binding to IgE antibodies” value is listed as “specific binding”. For the molecule B4, the “specific binding to IgE antibodies” value is “specific binding”.

For the molecule B5, the “specific binding to IgE antibodies” value is on record as “specific binding”. As to B6, the “specific binding to IgE antibodies” value is “specific binding”. For B7, the “specific binding to IgE antibodies” value is given as “specific binding”. For the molecule B8, the “specific binding to IgE antibodies” value is on record as “specific binding”. B9: the “specific binding to IgE antibodies” value is given as “specific binding”.
